Reference: publication PMC10707181, “Neuronal Scaffold Protein ARMS Interacts with Synaptotagmin-4 C2AB through the Ankyrin Repeat Domain with an Unexpected Mode” (International Journal of Molecular Sciences, 2023)
Substitutions are numbered along the chain they refer to. Numbers in names are those of the source. Blank lines part the entries; values can stand above or below the binder they belong to.

Experiments:
[1] = target: T1, ARMS protein N-terminal region (NT, residues 1–455) (rat, UniProt Q9EQG6 1-455); test: ITC; ARMS proteins (200 μM) in the syringe, Syt4 proteins (20 μM) in the cell; 25 °C; 50 mM Tris, 100 mM NaCl, 1 mM EDTA, 1 mM DTT, pH 7.8; one-site binding model; settings: both partners purified
T1 construct: ARMS (Kidins220), rat, UniProt Q9EQG6, residues 1-455: N-terminal region with the entire ankyrin repeat domain; also called ARMS NT; Kidins220 NT; source: E. coli BL21 (DE3), purified (Ni-NTA, size-exclusion chromatography)
T1 sequence (looked up): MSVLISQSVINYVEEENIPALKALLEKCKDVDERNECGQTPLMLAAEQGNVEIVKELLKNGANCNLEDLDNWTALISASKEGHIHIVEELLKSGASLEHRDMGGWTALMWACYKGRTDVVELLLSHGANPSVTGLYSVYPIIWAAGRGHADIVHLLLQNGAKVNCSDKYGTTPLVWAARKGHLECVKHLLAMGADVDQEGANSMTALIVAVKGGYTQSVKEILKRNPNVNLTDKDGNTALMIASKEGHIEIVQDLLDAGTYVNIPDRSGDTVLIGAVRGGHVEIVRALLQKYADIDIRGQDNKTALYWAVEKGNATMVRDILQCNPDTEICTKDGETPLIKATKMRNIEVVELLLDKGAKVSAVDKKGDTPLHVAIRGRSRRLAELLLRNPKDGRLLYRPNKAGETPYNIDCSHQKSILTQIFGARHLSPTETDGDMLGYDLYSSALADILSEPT

ARMS R1-11 K180A [2] = target: T2, ARMS R1-11 K180A (rat, UniProt Q9EQG6 1-365, K180A); test: ITC
T2 sequence: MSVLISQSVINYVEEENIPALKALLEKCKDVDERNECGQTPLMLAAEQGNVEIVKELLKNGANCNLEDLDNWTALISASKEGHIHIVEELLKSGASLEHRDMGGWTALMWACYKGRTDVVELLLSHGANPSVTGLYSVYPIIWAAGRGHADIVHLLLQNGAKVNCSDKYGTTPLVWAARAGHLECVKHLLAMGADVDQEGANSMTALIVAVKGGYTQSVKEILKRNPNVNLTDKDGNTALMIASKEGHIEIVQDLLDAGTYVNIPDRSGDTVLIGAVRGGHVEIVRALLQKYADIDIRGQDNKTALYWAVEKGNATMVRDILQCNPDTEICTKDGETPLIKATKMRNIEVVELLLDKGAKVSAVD

[3] = target: T3, ARMS ankyrin repeats 1–11 (R1-11, residues 1–365) (rat, UniProt Q9EQG6 1-365); test: ITC; ARMS proteins (200 μM) in the syringe, Syt4 proteins (20 μM) in the cell; 25 °C; 50 mM Tris, 100 mM NaCl, 1 mM EDTA, 1 mM DTT, pH 7.8; one-site binding model; settings: both partners purified
T3 construct: ARMS (Kidins220), rat, UniProt Q9EQG6, residues 1-365: ankyrin repeats 1-11; also called ARMS R1-11; ARMS R1-11 WT; source: E. coli BL21 (DE3), purified (Ni-NTA, size-exclusion chromatography)
T3 sequence (looked up): T2 sequence with A180K

ARMS R1-11 K180A [4] = target: T4, ARMS R1-11 K180A (rat, UniProt Q9EQG6 1-365, K180A); test: as above; settings: both partners purified
T4 construct: ARMS (Kidins220), rat, UniProt Q9EQG6, residues 1-365 (R1-11) with K180A; also called ARMS K180A; source: E. coli BL21 (DE3), purified (Ni-NTA, size-exclusion chromatography)
T4 sequence (looked up): T2 sequence

B2: Syt4 132–425 (domain or fragment, human, UniProt Q9H2B2-1 132-425, looked up)
chain: ESVSPESLKSSTSLTSEEKQEKLGTLFFSLEYNFERKAFVVNIKEARGLPAMDEQSMTSDPYIKMTILPEKKHKVKTRVLRKTLDPAFDETFTFYGIPYTQIQELALHFTILSFDRFSRDDIIGEVLIPLSGIELSEGKMLMNREIIKRNVRKSSGRGELLISLCYQSTTNTLTVVVLKARHLPKSDVSGLSDPYVKVNLYHAKKRISKKKTHVKKCTPNAVFNELFVFDIPCEGLEDISVEFLVLDSERGSRNEVIGQLVLGAAAEGTGGEHWKEICDYPRRQIAKWHVLCDG
notes: source: E. coli BL21 (DE3), purified (Ni-NTA, size-exclusion chromatography)
Kd (ARMS R1-11 K180A [2]): 11 µM
binding result [3]: binds
binding result (ARMS R1-11 K180A [4]): binds

B3: Syt4 C2AB (residues 151–425) (domain or fragment, human, UniProt Q9H2B2-1 151-425, looked up)
chain: QEKLGTLFFSLEYNFERKAFVVNIKEARGLPAMDEQSMTSDPYIKMTILPEKKHKVKTRVLRKTLDPAFDETFTFYGIPYTQIQELALHFTILSFDRFSRDDIIGEVLIPLSGIELSEGKMLMNREIIKRNVRKSSGRGELLISLCYQSTTNTLTVVVLKARHLPKSDVSGLSDPYVKVNLYHAKKRISKKKTHVKKCTPNAVFNELFVFDIPCEGLEDISVEFLVLDSERGSRNEVIGQLVLGAAAEGTGGEHWKEICDYPRRQIAKWHVLCDG
notes: also called Syt4 CAB; source: E. coli BL21 (DE3), purified (Ni-NTA, size-exclusion chromatography)
Kd [3]: ~7 µM

B5: Syt4 132–425 K284A (domain or fragment, human, UniProt Q9H2B2-1 132-425, looked up)
chain: B2 chain with K153A
notes: also called Syt4 K284A variant; source: E. coli BL21 (DE3), purified (Ni-NTA, size-exclusion chromatography)
binding result [3]: binds

Further lines, results first:

Kd [1]: ~17 µM
B1: full length of the cytoplasmic region of Syt4 (CD, residues 41–425) (domain or fragment, human, UniProt Q9H2B2-1 41-425, looked up)
chain: KSSKSNKTPPYKFVHVLKGVDIYPENLNSKKKFGADDKNEVKNKPAVPKNSLHLDLEKRDLNGNFPKTNLKPGSPSDLENATPKLFLEGEKESVSPESLKSSTSLTSEEKQEKLGTLFFSLEYNFERKAFVVNIKEARGLPAMDEQSMTSDPYIKMTILPEKKHKVKTRVLRKTLDPAFDETFTFYGIPYTQIQELALHFTILSFDRFSRDDIIGEVLIPLSGIELSEGKMLMNREIIKRNVRKSSGRGELLISLCYQSTTNTLTVVVLKARHLPKSDVSGLSDPYVKVNLYHAKKRISKKKTHVKKCTPNAVFNELFVFDIPCEGLEDISVEFLVLDSERGSRNEVIGQLVLGAAAEGTGGEHWKEICDYPRRQIAKWHVLCDG
notes: also called Synaptotagmin-4 CD; source: E. coli BL21 (DE3), purified (Ni-NTA, size-exclusion chromatography)

binding result [3]: binds
B4: Syt4 132–425 Q186A (domain or fragment, human, UniProt Q9H2B2-1 132-425, looked up)
chain: B2 chain with Q55A
notes: also called Syt4 Q186A; source: E. coli BL21 (DE3), purified (Ni-NTA, size-exclusion chromatography)
